In the supplement of paper PMC10567573:

B1: PKD2L1 (parent)
chain: TLARCAKDILGFAVMFFIVFFAYA

Variants of: B1
Assay: protein stability index of a GFP-peptide fusion (GPS, HEK-293T) (PSI 1-6); higher = more stable
Conditions: c terminus: a fixed tail appended
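Also: lentivirally expressed fusions sorted by FACS into six bins by GFP to DsRed ratio, PSI derived from sequencing read proportions per bin multiplied by bin number.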

| Variant | protein stability index |
| --- | --- |
| TLARCAKDILGFAVMFFIVFYAYA [F21Y] | 3.96 |
| TLARCAKDILGFAVMFFIVFIAYA [F21I] | 3.32 |
| TLARCAKDILGFAVMFFIVFWAYA [F21W] | 2.46 |
| TLARCAKDILGFAVMFFIVFSAYA [F21S] | 2.01 |
| TLARCAKDILGFAVMFFIVFMAYA [F21M] | 2.54 |
| TLARCAKDILGFAVMFFIVFRAYA [F21R] | 2.16 |
| TLARCAKDILGFAVMFFIVFTAYA [F21T] | 2.88 |
| TLARCAKDILGFAVMFFIVFNAYA [F21N] | 2.78 |
| TLARCAKDILGFAVMFFIVFQAYA [F21Q] | 1.38 |
| TLARCAKDILGFAVMFFIVFCAYA [F21C] | 3.17 |
| TLARCAKDILGFAVMFFIVFAAYA [F21A] | 2.11 |
| TLARCAKDILGFAVMFFIVFGAYA [F21G] | 2.08 |
| TLARCAKDILGFAVMFFIVFKAYA [F21K] | 2.1 |
| TLARCAKDILGFAVMFFIVFDAYA [F21D] | 3.21 |
| TLARCAKDILGFAVMFFIVFLAYA [F21L] | 1.94 |
| TLARCAKDILGFAVMFFIVFHAYA [F21H] | 2.98 |
| TLARCAKDILGFAVMFFIVFFAYI [A24I] | 1.68 |
| TLARCAKDILGFAVMFFIVFFAYP [A24P] | 3.52 |
| TLARCAKDILGFAVMFFIVFFAYN [A24N] | 2.33 |
| TLARCAKDILGFAVMFFIVFFAYC [A24C] | 1.23 |
| TLARCAKDILGFAVMFFIVFFAYR [A24R] | 1.45 |
| TLARCAKDILGFAVMFFIVFFAYY [A24Y] | 3.62 |
| TLARCAKDILGFAVMFFIVFFAYF [A24F] | 2.65 |
| TLARCAKDILGFAVMFFIVFFAYM [A24M] | 1.92 |

| Variant | protein stability index |
| --- | --- |
| TLARCAKDILGFAVMFFIVFFAYD [A24D] | 2.9 |
| TLARCAKDILGFAVMFFIVFFAYV [A24V] | 1.63 |
| TLARCAKDILGFAVMFFIVFFAYQ [A24Q] | 2.42 |
| TLARCAKDILGFAVMFFIVFFAYW [A24W] | 3.47 |
| TLARCAKDILGFAVMFFIVFFAYL [A24L] | 3.01 |
| TLARCAKDILGFAVMFFIVFFAYK [A24K] | 2.06 |
| TLARCAKDILGFAVMFFIVFFAFA [Y23F] | 1.57 |
| TLARCAKDILGFAVMFFIVFFAWA [Y23W] | 2.72 |
| TLARCAKDILGFAVMFFIVFFARA [Y23R] | 1.42 |
| TLARCAKDILGFAVMFFIVFFATA [Y23T] | 2.98 |
| TLARCAKDILGFAVMFFIVFFAAA [Y23A] | 1.7 |
| TLARCAKDILGFAVMFFIVFFANA [Y23N] | 2.61 |
| TLARCAKDILGFAVMFFIVFFAVA [Y23V] | 2.37 |
| TLARCAKDILGFAVMFFIVFFALA [Y23L] | 2.34 |
| TLARCAKDILGFAVMFFIVFFAPA [Y23P] | 2.51 |
| TLARCAKDILGFAVMFFIVFFACA [Y23C] | 3.45 |
| TLARCAKDILGFAVMFFIVFFAEA [Y23E] | 2.56 |
| TLARCAKDILGFAVMFFIVFFASA [Y23S] | 2.47 |
| TLARCAKDILGFAVMFFIVFFAGA [Y23G] | 2.6 |
| TLARCAKDILGFAVMFFIVFFAHA [Y23H] | 2.27 |
| TLARCAKDILGFAVMFFIVFFAIA [Y23I] | 1.51 |
| TLARCAKDILGFAVMFFIVFFAKA [Y23K] | 2.31 |
| TLARCAKDILGFAVMFFIVFFKYA [A22K] | 1.67 |
| TLARCAKDILGFAVMFFIVFFIYA [A22I] | 1.91 |

| Variant | protein stability index |
| --- | --- |
| TLARCAKDILGFAVMFFIVFFQYA [A22Q] | 2.21 |
| TLARCAKDILGFAVMFFIVFFCYA [A22C] | 4.15 |
| TLARCAKDILGFAVMFFIVFFLYA [A22L] | 2.14 |
| TLARCAKDILGFAVMFFIVFFVYA [A22V] | 1.42 |
| TLARCAKDILGFAVMFFIVFFPYA [A22P] | 4.08 |
| TLARCAKDILGFAVMFFIVFFMYA [A22M] | 1.48 |
| TLARCAKDILGFAVMFFIVFFTYA [A22T] | 1.83 |
| TLARCAKDILGFAVMFFIVFFFYA [A22F] | 1.98 |
| TLARCAKDILGFAVMFFIVFFEYA [A22E] | 2.82 |
| TLARCAKDILGFAVMFFIVFFGYA [A22G] | 4.34 |
| TLARCAKDILGFAVMFFIVFFYYA [A22Y] | 2.58 |
| TLARCAKDILGFAVMFFIVFFRYA [A22R] | 1.95 |
| TLARCAKDILGFAVMFFIVFFHYA [A22H] | 2.35 |
| TLARCAKDILGFAVMFFIVFFWYA [A22W] | 2.69 |
| TLARCAKDILGFAVMFFIVFFSYA [A22S] | 3.22 |
| TLARCAKDILGFAVMFFIVFFNYA [A22N] | 2.92 |
| TLARCAKDILGFAVMFFILFFAYA [V19L] | 3.88 |
| TLARCAKDILGFAVMFFIYFFAYA [V19Y] | 2.5 |
| TLARCAKDILGFAVMFFIHFFAYA [V19H] | 3.19 |
| TLARCAKDILGFAVMFFIQFFAYA [V19Q] | 3.48 |
| TLARCAKDILGFAVMFFITFFAYA [V19T] | 2.69 |
| TLARCAKDILGFAVMFFIRFFAYA [V19R] | 2.36 |
| TLARCAKDILGFAVMFFIDFFAYA [V19D] | 3.22 |
| TLARCAKDILGFAVMFFIGFFAYA [V19G] | 2.34 |

| Variant | protein stability index |
| --- | --- |
| TLARCAKDILGFAVMFFINFFAYA [V19N] | 2.39 |
| TLARCAKDILGFAVMFFIEFFAYA [V19E] | 2.11 |
| TLARCAKDILGFAVMFFIMFFAYA [V19M] | 2.58 |
| TLARCAKDILGFAVMFFIFFFAYA [V19F] | 2.13 |
| TLARCAKDILGFAVMFFIPFFAYA [V19P] | 2.99 |
| TLARCAKDILGFAVMFFIKFFAYA [V19K] | 2.34 |
| TLARCAKDILGFAVMFFICFFAYA [V19C] | 2.32 |
| TLARCAKDILGFAVMFFIIFFAYA [V19I] | 2.9 |
| TLARCAKDILGFAVMFFIWFFAYA [V19W] | 3 |
| TLARCAKDILGFAVMFFISFFAYA [V19S] | 2.36 |
| TLARCAKDILGFAVMFFIVEFAYA [F20E] | 2.77 |
| TLARCAKDILGFAVMFFIVKFAYA [F20K] | 2.48 |
| TLARCAKDILGFAVMFFIVHFAYA [F20H] | 2.07 |
| TLARCAKDILGFAVMFFIVTFAYA [F20T] | 1.92 |
| TLARCAKDILGFAVMFFIVRFAYA [F20R] | 2.42 |
| TLARCAKDILGFAVMFFIVGFAYA [F20G] | 2.03 |
| TLARCAKDILGFAVMFFIVYFAYA [F20Y] | 2.46 |
| TLARCAKDILGFAVMFFIVAFAYA [F20A] | 1.99 |
| TLARCAKDILGFAVMFFIVSFAYA [F20S] | 2.46 |
| TLARCAKDILGFAVMFFIVWFAYA [F20W] | 1.56 |
| TLARCAKDILGFAVMFFIVVFAYA [F20V] | 3.23 |
| TLARCAKDILGFAVMFFIVQFAYA [F20Q] | 3.46 |
